Square brackets hold non-standard residues; d marks the D form. Primed or numbered codes have the meaning given here. Ends that are not written are not given here. * marks the point of attachment. PEG3′ = PEG linker of three ethylene glycol repeat units; Biotin = O=C1N[C@H]2[C@H](CS[C@H]2CCCCC(=O)*)N1; Lys(N3) = [N-]=[N+]=NCCCC[C@H](N)C(=O)O; Pra = C#CC[C@H](N)C(=O)O
How the values were obtained:
[1] = molecular target: His-tagged CD8α human recombinant protein (MBS968456, MyBioSource) (human) (UniProt P01732); experiment: sandwich ELISA; biotinylated biligand on NeutrAvidin plate, His-tagged CD8α titrated
[2] = molecular target: His-tagged CD8α human recombinant protein (TP760215, Origene) (human) (UniProt P01732); experiment: sandwich ELISA; range told of the group, upper end tied to Cy(rwfnv) by the legend of FIG. 5
[3] = molecular target: His-tagged CD8α human recombinant protein (TP760215, Origene) (human) (UniProt P01732); experiment: sandwich ELISA; biotinylated ligand on NeutrAvidin plate, His-tagged CD8α titrated, anti-His-AP detection
[4] = molecular target: His-tagged CD8α human recombinant protein (MBS968456, MyBioSource) (human) (UniProt P01732); experiment: ELISA with His-tagged CD8α human recombinant protein
[5] = molecular target: His-tagged CD8α human recombinant protein (MBS968456, MyBioSource) (human) (UniProt P01732); experiment: sandwich ELISA; biligand against its single macrocycles Cy(HGRGH) and Cy(wplrf)
[6] = molecular target: His-tagged CD8α human recombinant protein (MBS968456, MyBioSource) (human) (UniProt P01732); experiment: sandwich ELISA; biotinylated biligand on NeutrAvidin plate, His-tagged CD8α titrated, anti-His-AP detection

Sequence of His-tagged CD8α human recombinant protein (TP760215, Origene) (human) (P01732 22-182 limits assumed): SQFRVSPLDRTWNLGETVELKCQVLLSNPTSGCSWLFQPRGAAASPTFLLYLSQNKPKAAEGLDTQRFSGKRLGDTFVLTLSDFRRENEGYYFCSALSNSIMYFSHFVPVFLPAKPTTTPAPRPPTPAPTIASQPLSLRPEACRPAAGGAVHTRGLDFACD
Sequence of His-tagged CD8α human recombinant protein (MBS968456, MyBioSource) (human) (P01732 22-182 limits assumed): as above

B1: Biotin-PEG3-Cy(HGRGH)-PEG3-Cy(wplrf) (peptide)
peptide 1: {Biotin-PEG3′}-[Pra]HGRGH
peptide 2: [Pra][dW][dP][dL][dR][dF]
modifications: not fully specified (some residues, C-terminus); numbers in words are those of the source; also: joined C-terminally through a PEG3 linker to the second macrocycle, triazole to a chain's N/C-terminus
**Q.** B1 was tested. Which fold below the affinity of the optimal linker (PEG5) biligand [1] did it give?
**A.** The fold below the affinity of the optimal linker (PEG5) biligand was 10 fold.

B2: biotin-PEG3-Cy(rwfnv) (peptide)
peptide: RWFNV
modifications: all residues D-amino acids (lower case); N-terminal biotin-PEG3; triazole-cyclized (Cy) between flanking Pra and Az4
**Q.** With B2 as the binder, how does the EC50 [2] read?
**A.** The EC50 was 62 nM.

**Q.** And the EC50 [3]?
**A.** The EC50 was 62 nM.

B3: Cy(Ghtwp)-Lys(Biotin)-PEG1-Cy(hGrGh) (peptide)
peptide 1: [Pra]G[dH][dT][dW][dP]
peptide 2: [Pra][dH]G[dR]G[dH][Lys(N3)]
modifications: not fully specified (C-terminus); printed as Cy(Ghtwp)-Lys(Biotin)-PEG1-Cy(hGrGh); also: triazole to a chain's N/C-terminus, triazole to a chain's N/C-terminus
**Q.** B3 was tested. Which EC50 [4] did it give?
**A.** The EC50 was 0.058 nM.

B4: biotin-PEG3-Cy(wplrf) (peptide)
peptide: WPLRF
modifications: all residues D-amino acids (lower case); N-terminal biotin-PEG3; triazole-cyclized (Cy) between flanking Pra and Az4
**Q.** B4 was tested. Which EC50 [3] did it give?
**A.** The EC50 was 16 nM.

B5: Biotin-PEG3-Cy(HGRGH)-PEG7-Cy(wplrf) (peptide)
peptide 1: {Biotin-PEG3′}-[Pra]HGRGH
peptide 2: [Pra][dW][dP][dL][dR][dF]
modifications: not fully specified (some residues, C-terminus); printed as Biotin-PEG3-Cy(HGRGH)-PEG7-Cy(wplrf); numbers in words are those of the source; also: joined C-terminally through a PEG7 linker to the second macrocycle, triazole to a chain's N/C-terminus
**Q.** B5 was tested. Which fold below the affinity of the optimal linker (PEG5) biligand [1] did it give?
**A.** The fold below the affinity of the optimal linker (PEG5) biligand was 10 fold.

B6: biotin-PEG3-Cy(ffrly) (peptide)
peptide: FFRLY
modifications: all residues D-amino acids (lower case); N-terminal biotin-PEG3; triazole-cyclized (Cy) between flanking Pra and Az4
**Q.** How did the EC50 [3] turn out when B6 was run?
**A.** The EC50 was 56 nM.

B7: Biotin-PEG3-Cy(HGRGH)-PEG6-Cy(wplrf) (peptide)
peptide 1: {Biotin-PEG3′}-[Pra]HGRGH
peptide 2: [Pra][dW][dP][dL][dR][dF]
modifications: not fully specified (some residues, C-terminus); printed as Biotin-PEG3-Cy(HGRGH)-PEG6-Cy(wplrf); numbers in words are those of the source; also: joined C-terminally through a PEG6 linker to the second macrocycle, triazole to a chain's N/C-terminus
**Q.** B7 was tested. Which fold below the affinity of the optimal linker (PEG5) biligand [1] did it give?
**A.** Its fold below the affinity of the optimal linker (PEG5) biligand is 10 fold.

B8: Biotin-PEG3-Cy(HGRGH)-PEG4-Cy(wplrf) (peptide)
peptide 1: {Biotin-PEG3′}-[Pra]HGRGH
peptide 2: [Pra][dW][dP][dL][dR][dF]
modifications: not fully specified (some residues, C-terminus); printed as Biotin-PEG3-Cy(HGRGH)-PEG4-Cy(wplrf); numbers in words are those of the source; also: joined C-terminally through a PEG4 linker to the second macrocycle, triazole to a chain's N/C-terminus
**Q.** With B8 as the binder, how does the fold below the affinity of the optimal linker (PEG5) biligand [1] read?
**A.** Its fold below the affinity of the optimal linker (PEG5) biligand is 10 fold.

B9: biotin-PEG3-Cy(wsvnv) (peptide)
peptide: WSVNV
modifications: all residues D-amino acids (lower case); N-terminal biotin-PEG3; triazole-cyclized (Cy) between flanking Pra and Az4
**Q.** For B9, which EC50 [3] is on record?
**A.** The EC50 was 9 nM.

B10: Biotin-PEG3-Cy(HGRGH)-PEG5-Cy(wplrf) (peptide)
peptide 1: {Biotin-PEG3′}-[Pra]HGRGH
peptide 2: [Pra][dW][dP][dL][dR][dF]
modifications: not fully specified (some residues, C-terminus); printed as Biotin-PEG3-Cy(HGRGH)-PEG5-Cy(wplrf); numbers in words are those of the source; also: joined C-terminally through a PEG5 linker to the second macrocycle, triazole to a chain's N/C-terminus
**Q.** How did the fold improvement in affinity relative to the individual PCC macrocyclic ligands [5] turn out when B10 was run?
**A.** Its fold improvement in affinity relative to the individual PCC macrocyclic ligands is greater than 30 fold.

**Q.** And the EC50 [6]?
**A.** Its EC50 is 0.2 nM.

— patent US20170319722A1
